# Measurements reported in US20230312702A1 (KINDRED BIOSCIENCES, published 2023).
# Where a chain is given by its changes, count along the chain named. Several values for one entry are separate records, joined by “and”; a condition that tells them apart may be missing. Equal entries are not always repeated.
# T1: GST_(S98-S144)
# T1 construct: also called 34.5KDa
# T1 GST fusion protein: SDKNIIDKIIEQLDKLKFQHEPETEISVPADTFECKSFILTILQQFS
# T2: GST_(A127-Q159)
# T2 construct: also called 31.1KDa
# T2 GST fusion protein: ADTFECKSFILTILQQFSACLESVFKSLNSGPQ
# T3: Canine IL31 with C-terminal polyHis tag (canine, biotinylated at primary amine groups (NHS-LC-Biotin) or at glycan groups (Biotin-LC-Hydrazide))
# T3 construct: the protein was collected from the supernatant of 293 or CHO-S cells; also called biotinylated canine IL31; canine IL31 (amine-conjugated-biotin); not shown: C-terminal poly-His tag
# T3 chain: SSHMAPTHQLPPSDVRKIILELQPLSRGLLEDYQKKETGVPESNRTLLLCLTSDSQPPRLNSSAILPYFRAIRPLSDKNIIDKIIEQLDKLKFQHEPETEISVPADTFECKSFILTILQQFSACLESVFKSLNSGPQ
# B1: wild-type canine IgG-B Fc polypeptide (protein, not shown: small tags and cut ends)
# chain: PAPEMLGGPSVFIFPPKPKDTLLIARTPEVTCVVVDLDPEDPEVQISWFVDGKQMQTAKTQPREEQFNGTYRVVSVLPIGHQDWLKGKQFTCKVNNKALPSPIERTISKARGQAHQPSVYVLPPSREELSKNTVSLTCLIKDFFPPDIDVEWQSNGQQEPESKYRTTPPQLDEDGSYFLYSKLSVDKSRWQRGDTFICAVMHEALHNHYTQESLSHSPGK
# B2: variant canine IgG-B Fc polypeptide L(23)Y (protein, not shown: small tags and cut ends)
# chain: B1 chain with L23Y
# B3: variant canine IgG-B Fc polypeptide L(23)F (protein, not shown: small tags and cut ends)
# chain: B1 chain with L23F
# B4: variant canine IgG-B Fc polypeptide L(23)M (protein, not shown: small tags and cut ends)
# chain: B1 chain with L23M
# B5: variant canine IgG-B polypeptide L(23)S (protein, not shown: small tags and cut ends)
# chain: B1 chain with L23S
# B6: monoclonal antibody M14 (mouse antibody clone M14) (antibody, V domains shown)
# VH: EVQLQESGPSLVKPSQTLSLTCSVTGDSITSGYWNWIRKFPGNKLEYMGYISYSGITDYNPSLKSRISITRDTSKNQYYLQLNSVTTEDTATYYCARYGNYGYAMDYWGQGTSVTVSS
# VL: DIVLTQSPASLAVSLGQRATISCRASESVDTYGNSFMHWYQQKSGQSPKLLIYRASNLESGIPARFGGSGSRTDFTLTIDPVEADDVATYYCQQSYEDPWTFGGGTKLEIK
# B7: chimeric M14 (murine M14 VH and VL fused to canine IgG-B constant heavy chain and canine constant light chain) (antibody, V domains shown)
# VH: B6 VH
# VL: DIVLTQSPASLAVSLGQRATISCRASESVDTYGNSFMHWYQQKSGQSPKLLIYRASNLESGIPARFGGSGSRTDFTLTIDPVEADDVATYYCQQSYEDPWTFGGGTKLEIKR
# notes: expressed in CHO cells, Protein A purified; also called chimeric M14 antibody
# B8: caninized M14 IgG-B (antibody, V domains shown)
# VH: B6 VH with Q5V, S15G, Q16G, T17S, S19R, S68T, T70S, S113L
# VL: B7 VL with L4M, A12S, S44P, R72G, E83Q
# notes: Caninized M14 on canine IgG-B with canine light chain constant region; also called caninized M14 antibody
# How the values were obtained:
# [1] = biological target: canine FcRn with a poly-His tag and canine B2M heterodimer complex (canine); assay: SPR (Biacore T200) at pH 6.0, biotinylated FcRn/B2M immobilised, Fc as analyte
# Sequence of canine FcRn with a poly-His tag and canine B2M heterodimer complex (canine) (chain, as listed by the source limits assumed, form in doubt, chain 1 of 2): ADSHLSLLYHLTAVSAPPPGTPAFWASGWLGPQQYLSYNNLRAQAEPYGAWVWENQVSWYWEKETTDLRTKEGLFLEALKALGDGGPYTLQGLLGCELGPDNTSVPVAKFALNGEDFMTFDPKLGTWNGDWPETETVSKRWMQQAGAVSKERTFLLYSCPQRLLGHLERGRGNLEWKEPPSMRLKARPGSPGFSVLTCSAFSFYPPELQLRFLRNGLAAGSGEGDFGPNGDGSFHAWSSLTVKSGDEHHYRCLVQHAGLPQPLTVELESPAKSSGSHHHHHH
# Sequence of canine FcRn with a poly-His tag and canine B2M heterodimer complex (canine) (b2m, as listed by the source limits assumed, form in doubt, chain 2 of 2): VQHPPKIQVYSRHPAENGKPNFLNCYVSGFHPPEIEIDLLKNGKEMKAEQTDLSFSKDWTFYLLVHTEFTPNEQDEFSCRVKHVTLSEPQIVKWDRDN
# [2] = biological target: equine IL31 fused to human Fc (equine; human); assay: biolayer interferometry, biotinylated equine IL31 on the sensor, preliminary; biolayer interferometry, biotinylated equine IL31 on the sensor, preliminary; upper end of the range
# Sequence of equine IL31 fused to human Fc (equine; human) (chain, as listed by the source limits assumed, form in doubt): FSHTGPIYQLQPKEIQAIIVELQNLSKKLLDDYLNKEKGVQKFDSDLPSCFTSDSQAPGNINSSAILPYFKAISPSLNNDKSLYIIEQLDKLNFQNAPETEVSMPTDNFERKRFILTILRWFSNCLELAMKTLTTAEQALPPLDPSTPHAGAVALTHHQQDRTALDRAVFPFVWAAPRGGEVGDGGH
# [3] = biological target: T1, GST_(S98-S144); assay: immunoblot of GST-canine IL31 fusions expressed in E. coli, membrane probed with chimeric M14; anti-GST blot in Fig. 5B
# Description: (§1) To identify the canine IL31 epitope recognized by M14, multiple GST canine IL31 fragment fusion molecules were generated and proteins were expressed intracellularly in E. coli. After the GST fusion proteins were transferred to a membrane, chimeric M14 was used to probe the membrane. A positive signal resulted when the IL31 fragment contained the epitope.
# [4] = biological target: T2, GST_(A127-Q159); assay: as above
# Description: as §1
# [5] = biological target: T3, Canine IL31 with C-terminal polyHis tag; assay: biolayer interferometry (Octet), canine IL31 (glycan-conjugated-biotin) on streptavidin tips, 100 nM antibody
# Description: (§2) The binding analysis was performed using a biosensor Octet as follows. Briefly, canine IL31 was biotinylated at primary amine groups using EZ-Link™ NHS-LC-Biotin (Thermo Scientific, Catalog No. 21336) or at glycan groups using EZ-Link™ Biotin-LC-Hydrazide (ThermoFisher Scientific, Catalog No. 21340) according to the manufacturer's instructions. The free unreacted biotin was removed from biotinylated IL31 by extensive dialysis. Biotinylated canine IL31 was captured on streptavidin sensor tips. The association of four different concentrations (400, 200, 66.6, and 33 nM) of chimeric and caninized M14 antibody and human and canine IL31 (amine-conjugated-biotin) and the association of 100 nM of caninized M14 antibody and canine IL31 (glycan-conjugated-biotin) was monitored for ninety seconds. Dissociation was monitored for 600 seconds. A buffer only blank curve was subtracted to correct for any drift. The data were fit to a 2:1 binding model using ForteBio™ data analysis software to determine the kₒₙ, koff, and the Kd. The buffer for dilutions and all binding steps was: 20 mM phosphate, 150 mM NaCl, pH 7.2.
# (§3) Canine IL31 with C-terminal polyHis tag was expressed and purified from CHO-S cells. Human IL31 was obtained from Sino Biological and Streptavidin biosensors was obtained from ForteBio (Cat. #18-509).
# [6] = biological target: T3, Canine IL31 with C-terminal polyHis tag; assay: biolayer interferometry (Octet), canine IL31 (amine-conjugated-biotin) on streptavidin tips, 2:1 fit
# Description: as §2, §3
binder,measurement,setting,value
B1,koff,[1],0.122 s⁻¹
B2,koff,[1],0.0138 s⁻¹
B3,koff,[1],0.0631 s⁻¹ and 0.0847 s⁻¹
B4,koff,[1],0.126 s⁻¹
B5,koff,[1],0.241 s⁻¹
B6,Kd,[2],< 50 nM
B7,binding result,[3],no binding
same,binding result,[4],no binding
B8,Kd,[5],< 0.001 nM
same,koff,[5],< 1e-07 s⁻¹
same,Kd,[6],< 0.01 nM
